Publication PMC9614721, “Polyvalent Glycan Quantum Dots as a Multifunctional Tool for Revealing Thermodynamic, Kinetic, and Structural Details of Multivalent Lectin–Glycan Interactions” (ACS Applied Materials & Interfaces, 2022)

B1: DC-SIGN, soluble extracellular segment, Q274C, labeled with Atto-594 (domain or fragment, UniProt Q9NNX6 59-404, looked up)
chain: QVSKVPSSISQEQSRQDAIYQNLTQLKAAVGELSEKSKLQEIYQELTQLKAAVGELPEKSKLQEIYQELTRLKAAVGELPEKSKLQEIYQELTWLKAAVGELPEKSKMQEIYQELTRLKAAVGELPEKSKQQEIYQELTRLKAAVGELPEKSKQQEIYQELTRLKAAVGELPEKSKQQEIYQELTQLKAAVERLCHPCPWEWTFFQGNCYFMSNSCRNWHDSITACKEVGAQLVVIKSAEEQNFLQLQSSRSNRFTWMGLSDLNQEGTWQWVDGSPLLPSFKQYWNRGEPNNVGEEDCAEFSGNGWNDDKCNLAKFWICKKSAASCSRDEEQFLSPAPATPNPPPA
modifications: maleimide-modified Atto-594 dye on the cysteine introduced at Q274 (labeling efficiency ~85% per monomer)
notes: DC-SIGN, soluble extracellular segment; also called dendritic-cell-specific intercellular adhesion molecule-3-grabbing nonintegrin; source: expressed, purified
B2: DC-SIGNR, soluble extracellular segment, R287C, labeled with Atto-594 (domain or fragment, UniProt Q9H2X3 71-399, looked up)
chain: QVSKVPSSLSQEQSEQDAIYQNLTQLKAAVGELSEKSKLQEIYQELTQLKAAVGELPEKSKLQEIYQELTRLKAAVGELPEKSKLQEIYQELTRLKAAVGELPEKSKLQEIYQELTRLKAAVGELPEKSKLQEIYQELTELKAAVGELPEKSKLQEIYQELTQLKAAVGELPDQSKQQQIYQELTDLKTAFERLCRHCPKDWTFFQGNCYFMSNSQCNWHDSVTACQEVRAQLVVIKTAEEQNFLQLQTSRSNRFSWMGLSDLNQEGTWQWVDGSPLSPSFQRYWNSGEPNNSGNEDCAEFSGSGWNDNRCDVDNYWICKKPAACFRDE
modifications: maleimide-modified Atto-594 dye on the cysteine introduced at R287 (labeling efficiency ~85% per monomer)
notes: DC-SIGNR, soluble extracellular segment; also called a DC-SIGN related lectin found on endothelial cells; source: expressed, purified

Assays:
[1] = molecular target: DC-SIGN with its C-terminal 16 amino acids truncated, soluble extracellular segment, Q274C, labeled with Atto-594 (UniProt Q9NNX6); assay: dynamic light scattering; purified lectins in solution; hydrodynamic diameters ~14 nm; identity also checked by HRMS and UV-vis spectroscopy
[2] = molecular target: the molecule itself; assay: as above

Row | Molecule | stoichiometry N [1] | stoichiometry N [2]
1 | DC-SIGN with its C-terminal 16 amino acids truncated, soluble extracellular segment, Q274C, labeled with Atto-594 (from UniProt Q9NNX6 59-404) (domain or fragment) | 4 | –
2 | B1 | – | 4
3 | B2 | – | 4
